From patent publication US20220213165A1 (University of Texas, published 2022) come the findings set out here.

Experiment [1] deals with T1, recombinant human EphB4 (rhEphB4) (human, UniProt P54760 16-539, limits assumed).
T1 construct: Bought protein; also called purified EphB4; immobilized EphB4
T1 sequence (looked up): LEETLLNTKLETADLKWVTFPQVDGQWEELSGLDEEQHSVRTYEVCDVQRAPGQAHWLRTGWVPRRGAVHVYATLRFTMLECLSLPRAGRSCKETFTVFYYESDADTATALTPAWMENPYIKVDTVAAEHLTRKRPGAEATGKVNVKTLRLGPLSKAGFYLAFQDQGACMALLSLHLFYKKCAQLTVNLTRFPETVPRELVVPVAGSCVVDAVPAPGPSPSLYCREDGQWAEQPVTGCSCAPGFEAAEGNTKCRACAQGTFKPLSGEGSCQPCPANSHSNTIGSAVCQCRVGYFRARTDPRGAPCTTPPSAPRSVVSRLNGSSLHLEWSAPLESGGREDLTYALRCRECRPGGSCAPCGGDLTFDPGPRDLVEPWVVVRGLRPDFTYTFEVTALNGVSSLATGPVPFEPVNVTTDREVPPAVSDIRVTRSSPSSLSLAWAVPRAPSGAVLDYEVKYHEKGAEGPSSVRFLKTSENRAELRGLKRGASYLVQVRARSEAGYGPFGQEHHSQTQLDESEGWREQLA
Nature of the experiment: SPR (BIACore), peptide 1.6-800 nM injected over immobilized rhEphB4. The protocol: Peptides in concentrations of 1.6 nM to 800 nM were injected over the rhEphB4 sensor chips, and the magnitude of peptide binding to immobilized EphB4 in response units (RU) was recorded.
(§1) Surface plasmon resonance (SPR) binding and competition assays. A stock solution of EphB4 in PBS (100 μg/mL) was diluted to 25 μg/mL with 10 mM sodium acetate buffer (pH 4.5) and immobilized to CM5 sensor chips using the amine coupling reaction according to manufacturer-provided procedures (BIACore). Briefly, the surfaces of the chips in flow cells (FC)-1 and FC-2 were activated by exposing chips to a mixture of 200 mM N-ethyl-N′-dimethylaminopropyl carbodiimide and 50 mM N-hydroxysuccinimide for 7 min. FC-1 was used as a reference surface and was directly deactivated by injecting 1 M ethanolamine at pH 8.5 for 7 min. FC-2 was injected with 25 μg/mL human or murine EphB4 followed by injection of 1 M ethanolamine to block the remaining activated ester groups on the surface. The chips were allowed to stabilize for at least 2 h in HBSEP running buffer before injection of test analytes.
For orientation: In SPR one partner is held on a chip, and binding of the other changes the refractive index at the surface.

In experiment [2] the target is T1, recombinant human EphB4 (rhEphB4). Nature of the experiment: SPR, peptide over immobilized EphB4, 1:1 mass transfer interaction model. The protocol: as §1
Experiment [3] deals with T2, EphB4 on the surface of A2780cp20 cells (human, UniProt P54760 16-987).
T2 construct: whole, on cells; also called EphB4 in human HeyA8 ovarian cancer cells; EphB4 in human ovarian cancer cells A2780cp20
T2 sequence (looked up): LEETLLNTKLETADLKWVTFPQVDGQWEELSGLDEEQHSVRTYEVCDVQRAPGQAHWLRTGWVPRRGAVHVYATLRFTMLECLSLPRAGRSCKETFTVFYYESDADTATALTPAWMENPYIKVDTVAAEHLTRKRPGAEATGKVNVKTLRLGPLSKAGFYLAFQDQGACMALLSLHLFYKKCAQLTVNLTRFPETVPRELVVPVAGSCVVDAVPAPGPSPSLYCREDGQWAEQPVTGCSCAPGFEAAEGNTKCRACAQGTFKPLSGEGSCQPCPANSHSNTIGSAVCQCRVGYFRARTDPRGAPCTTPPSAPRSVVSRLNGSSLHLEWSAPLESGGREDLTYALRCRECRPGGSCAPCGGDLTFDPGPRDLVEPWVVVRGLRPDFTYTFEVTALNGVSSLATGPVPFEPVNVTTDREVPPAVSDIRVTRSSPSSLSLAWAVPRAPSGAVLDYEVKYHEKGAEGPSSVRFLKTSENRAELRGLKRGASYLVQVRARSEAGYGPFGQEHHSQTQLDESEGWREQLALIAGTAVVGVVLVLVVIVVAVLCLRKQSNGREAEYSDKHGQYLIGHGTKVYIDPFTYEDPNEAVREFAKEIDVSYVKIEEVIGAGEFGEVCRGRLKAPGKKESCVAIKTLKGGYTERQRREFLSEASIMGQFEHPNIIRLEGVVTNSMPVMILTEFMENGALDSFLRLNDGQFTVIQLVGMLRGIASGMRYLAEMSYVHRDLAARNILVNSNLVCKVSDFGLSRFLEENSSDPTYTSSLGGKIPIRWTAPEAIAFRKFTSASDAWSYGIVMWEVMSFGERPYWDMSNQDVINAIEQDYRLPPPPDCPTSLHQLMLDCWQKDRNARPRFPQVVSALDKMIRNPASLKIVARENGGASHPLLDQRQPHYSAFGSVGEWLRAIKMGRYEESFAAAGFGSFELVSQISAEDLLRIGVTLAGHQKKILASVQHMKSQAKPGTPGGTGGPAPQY
Description: flow cytometry competition: A2780cp20 cells with EFNB2-Fc (20 nM) and BIDEN-AP (0-100 µM), PE-labeled anti-Fc detection. Here is the method:
D-Tyr-P3 is highlighted in red. […] Vertical axes, in response units (RU), represent binding of the peptide to immobilized EphB4. […] Individual duplicates were performed in each condition. Data are presented as mean±SD.
Cell-based binding assay. […] Cells were analyzed in a Cellquest fluorocytometer (BD Bioscience, San Jose, Calif.). The experiments were run in duplicate.
(In general: In flow cytometry, cells or beads pass a laser one at a time.)

In experiment [4] the target is T1, recombinant human EphB4 (rhEphB4). Description: SPR competition: BIDEN-AP (2-1000 nM) mixed with human EphB4 (30 nM), injected on EFNB2-Fc-coated CM5 chip.
Experiment [5] shares this target. Description: SPR (BIACore), peptide 1.6-800 nM injected over immobilized rhEphB4. Here is the method: FIG. 10: BIACore sensorgrams of binding of truncated peptides to immobilized rhEphB4. Retention of a peptide on a sensor chip was indicated by a change in response units (RU) over the course of the 180-s injection interval followed by a 210-s washing interval. Peptides in concentrations of 1.6 nM to 800 nM were injected over the rhEphB4 sensor chip, and the magnitude of peptide binding to immobilized EphB4 was recorded.
as §1
This is another data set of the same source.

For experiment [6] the target is unchanged. Description: SPR, peptide over immobilized EphB4.

As a reminder, the Kd is the equilibrium constant for the complex coming apart. One may read the IC50 as the point on the concentration scale where inhibition reaches its midpoint.

Square brackets hold non-standard residues; d marks the D form. Ends that are not written are not given here.

Regarding TNYLFSPNGPIAR[dA]W (also called TNYL-RAW with D-Ala at P14) [TNYLFSPNGPIAR(dA)W], the Kd in experiment [1] was found to be 43 nM.

B1: BIDEN-AP (bi-directional ephrin agonist peptide), TN(dY)LFSPNGPIARAW (peptide)
peptide: TN[dY]LFSPNGPIARAW
notes: Synthetic 15-mer made by solid phase synthesis on Rink resin; also called EphB4 agonist peptide
On to B1, for which the Kd in experiment [2] worked out at 7 nM. Moreover, the IC50 in experiment [3] was roughly 1000 nM; in experiment [4] it was 4 nM. As for T[dN]YLFSPNGPIARAW (also called TNYL-RAW with D-Asn at P2) [T(dN)YLFSPNGPIARAW], the Kd in experiment [1] came to 5 nM.

B2: TNYLFSPNGPIAR (peptide)
peptide: TNYLFSPNGPIAR
notes: also called TNYL-RAW truncated of C-terminus Ala-Trp (P14-P15)
As to B2, the Kd in experiment [5] came out at 192 nM.

B3: TNYL-RAW (peptide)
peptide: TNYLFSPNGPIARAW
notes: also called EphB4 antagonist TNYL-RAW peptide
As to B3, in experiment [6], the Kd came out at 3.1 nM. In the case of TNYLF[dS]PNGPIARAW [B4-006, TNYLF(dS)PNGPIARAW], the Kd in experiment [1] worked out at 7700 nM. TNYL[dF]SPNGPIARAW [B4-005, TNYL(dF)SPNGPIARAW]: the Kd in experiment [6] stood at 75 nM; in experiment [1] it was 841 nM.

B4: B4-001, Cyclo(KTNYLFSPNGPIARAWD) (peptide)
peptide: KTNYLFSPNGPIARAWD
modifications: not fully specified (bridges); printed as Cyclo(KTNYLFSPNGPIARAWD); also: cyclic, ring-closing atoms not given here
As for B4, the Kd in experiment [6] was 4.4 nM.

B5: NYLFSPNGPIARAW (peptide)
peptide: NYLFSPNGPIARAW
notes: also called TNYL-RAW truncated of N-terminus Thr-P1
As for B5, the Kd in experiment [5] stood at 4.2 nM. TNYLFSPNGPIARAW (D-Arg at position 13) [B4-002, TNYLFSPNGPIA(dR)AW]: in experiment [6], the Kd is 39 nM. As for TNYLFSPNGPIARA[dW] (also called TNYL-RAW with D-Trp at P15) [TNYLFSPNGPIARA(dW)], the Kd in experiment [1] was determined as 8 nM.

B6: B4-008, TNYLFSPNGPIARA (peptide)
peptide: TNYLFSPNGPIARA
notes: also called TNYL-RAW truncated of C-terminus Trp-P15
With B6, the Kd in experiment [6] is 13 nM; in experiment [5], 60 nM.

B7: YLFSPNGPIARAW (peptide)
peptide: YLFSPNGPIARAW
notes: also called TNYL-RAW truncated of N-terminus Thr-Asn (P1-P2)
As for B7, in experiment [5], the Kd is 5.2 nM. Consider TNY[dL]FSPNGPIARAW [B4-004, TNY(dL)FSPNGPIARAW], for which the Kd in experiment [6] was 65 nM.
